T1: FcγRIIb (human, UniProt P31994 43-217)
T1 construct: extracellular domain; also called FcgRIIb; 2b; not shown: His tag at the C terminus
T1 sequence (looked up): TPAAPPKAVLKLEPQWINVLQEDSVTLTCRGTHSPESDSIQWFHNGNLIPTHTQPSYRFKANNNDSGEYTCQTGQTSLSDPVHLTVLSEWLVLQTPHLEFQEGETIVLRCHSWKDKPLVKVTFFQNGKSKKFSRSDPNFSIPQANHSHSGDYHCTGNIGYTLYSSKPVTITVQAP

T2: FcγRIIb extracellular domain with C-terminal His tag (human, UniProt P31994 43-217)
T2 construct: extracellular domain; Soluble receptor expressed in FreeStyle293 cells, used as analyte in Biacore; also called FcgRIIb; 2b; not shown: His tag at the C terminus
T2 sequence (looked up): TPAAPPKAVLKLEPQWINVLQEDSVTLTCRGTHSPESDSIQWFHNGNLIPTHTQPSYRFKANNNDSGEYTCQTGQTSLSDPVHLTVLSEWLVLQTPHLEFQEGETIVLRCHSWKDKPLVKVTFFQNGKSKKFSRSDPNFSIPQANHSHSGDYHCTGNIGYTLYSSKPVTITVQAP


Key:
FcγRIa [1] = target: T3, FcγRIa (human, UniProt P12314 16-292); experiment: SPR (Biacore); He/Con_1a (FcγRIa) divided by He/Con_2b (FcγRIIb)
T3 construct: extracellular domain; also called FcgRI; 1a; not shown: His tag at the C terminus
T3 sequence (P12314 16-292): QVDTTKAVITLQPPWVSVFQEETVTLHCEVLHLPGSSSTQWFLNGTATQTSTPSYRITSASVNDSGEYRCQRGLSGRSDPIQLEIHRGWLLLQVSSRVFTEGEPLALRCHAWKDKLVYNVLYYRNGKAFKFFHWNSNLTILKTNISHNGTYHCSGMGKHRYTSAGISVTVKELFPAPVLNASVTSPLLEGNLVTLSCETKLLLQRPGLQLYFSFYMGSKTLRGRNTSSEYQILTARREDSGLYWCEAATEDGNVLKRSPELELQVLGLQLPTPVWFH

FcγRIIb = target: T1, FcγRIIb; experiment: SPR (Biacore), antibody captured, FcγR as analyte; binding as % of GpH7-A5/GpH7-B3/GpL16-k0
FcγRIa [2] = target: T3, FcγRIa; experiment: as above
[3] = target: T4, FcγRIIIa extracellular domain with C-terminal His tag (human, UniProt P08637 17-208); experiment: SPR (Biacore), antibody captured on antigen peptide chip, FcγR as analyte
T4 construct: extracellular domain; also called FcgRIIIa; 3a; not shown: His tag at the C terminus
T4 sequence (P08637 17-208): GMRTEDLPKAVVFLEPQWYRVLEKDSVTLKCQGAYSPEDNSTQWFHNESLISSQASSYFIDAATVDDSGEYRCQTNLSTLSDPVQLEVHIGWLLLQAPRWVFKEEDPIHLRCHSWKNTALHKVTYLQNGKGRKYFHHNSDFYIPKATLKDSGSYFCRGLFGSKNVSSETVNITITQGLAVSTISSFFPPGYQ
Method: (§1) Analysis of interaction between objective antibody and the FcγR was carried out using Biacore T100 (GE Healthcare). HBS-EP+ (GE Healthcare) was used as the running buffer, and the measurement temperature was set to 25° C. Chips produced by immobilizing the antigen peptide by the amine coupling method to a Series S Sencor Chip CM5 (GE Healthcare), or alternatively, chips produced by allowing preliminarily biotinylated antigen peptides to interact with and immobilize onto a Series S Sensor Chip SA (certified) (GE Healthcare) were used. Antibodies of interest were captured onto an antigen peptide-immobilized chip, and allowed to interact to each FcγR diluted with running buffer. To regenerate and repeatedly use the chip, the antibodies captured on the chip were washed off by reacting 10 mM glycine-HCl, pH 1.5.
(§2) The FcγR-binding activity of each antibody was assessed primarily using as an indicator the FcγR-binding activity and dissociation constant for FcγR.

[4] = target: T2, FcγRIIb extracellular domain with …; experiment: as above
Method: as §1, §2

[5] = target: T4, FcγRIIIa extracellular domain with …; experiment: SPR; He/Con_3a divided by He/Con_2b (FcγRIIIa over FcγRIIb)
Method: as §1, §2

Row | Binder | Ia/IIb He_1a/2b (FcγRIa [1]) [ratio] | He/Con_2b (FcγRIIb) | He/Con_1a (FcγRIa [2]) | He/Con_3a [3] | He/Con_2b [4] | He_3a/2b (IIIa/IIb) [5] [ratio]
1 | GpH7-A5/GpH7-B3 variant A327_09D/GpL16-k0 (antibody, human IgG1, kappa, heterodimerized IgG1; alteration in the GpH7-B3 H chain only; also called He Ab) heavy 1: not shown heavy 2: not shown light: DIVMTQSPLSLPVTPGEPASISCQASESLVHSNRNTYLHWYLQKPGQSPQLLIYKVSNRFSGVPDRFSGSGSGTDFTLKISRVEAEDVGVYYCSQNTHVPPTFGQGTKVEIERTVAAPSVFIFPPSDEQLKSGTASVVCLLNNFYPREAKVQWKVDNALQSGNSQESVTEQDSKDSTYSLSSTLTLSKADYEKHKVYACEVTHQGLSSPVTKSFNRGEC | 0.6 | 172 % of control | 103 % of control | – | – | –
2 | GpH7-A5/GpH7-B3 variant P331_16H/GpL16-k0 (antibody, human IgG1, kappa, Heterodimerized anti-glypican-3 IgG1; P331H (EU) only in the GpH7-B3 chain; also called He Ab) heavy 1: not shown heavy 2: not shown light: DIVMTQSPLSLPVTPGEPASISCQASESLVHSNRNTYLHWYLQKPGQSPQLLIYKVSNRFSGVPDRFSGSGSGTDFTLKISRVEAEDVGVYYCSQNTHVPPTFGQGTKVEIERTVAAPSVFIFPPSDEQLKSGTASVVCLLNNFYPREAKVQWKVDNALQSGNSQESVTEQDSKDSTYSLSSTLTLSKADYEKHKVYACEVTHQGLSSPVTKSFNRGEC | – | – | – | 80.2 relative binding (GpH7-A5/GpH7-B3/GpL16-k0 = 100) | 116 relative binding (GpH7-A5/GpH7-B3/GpL16-k0 = 100) | 0.69
3 | GpH7-A5/GpH7-B3 variant I332_09D/GpL16-k0 (antibody, human IgG1, kappa, heterodimerized IgG1; alteration in the GpH7-B3 H chain only; also called He Ab) heavy 1: not shown heavy 2: not shown light: DIVMTQSPLSLPVTPGEPASISCQASESLVHSNRNTYLHWYLQKPGQSPQLLIYKVSNRFSGVPDRFSGSGSGTDFTLKISRVEAEDVGVYYCSQNTHVPPTFGQGTKVEIERTVAAPSVFIFPPSDEQLKSGTASVVCLLNNFYPREAKVQWKVDNALQSGNSQESVTEQDSKDSTYSLSSTLTLSKADYEKHKVYACEVTHQGLSSPVTKSFNRGEC | 0.64 | 147 % of control | 93.4 % of control | – | – | –
4 | GpH7-A5/GpH7-B3 variant P331_08L/GpL16-k0 (antibody, human IgG1, kappa, Heterodimerized anti-glypican-3 IgG1; P331L (EU) only in the GpH7-B3 chain; also called He Ab) heavy 1: not shown heavy 2: not shown light: DIVMTQSPLSLPVTPGEPASISCQASESLVHSNRNTYLHWYLQKPGQSPQLLIYKVSNRFSGVPDRFSGSGSGTDFTLKISRVEAEDVGVYYCSQNTHVPPTFGQGTKVEIERTVAAPSVFIFPPSDEQLKSGTASVVCLLNNFYPREAKVQWKVDNALQSGNSQESVTEQDSKDSTYSLSSTLTLSKADYEKHKVYACEVTHQGLSSPVTKSFNRGEC | – | – | – | 72.1 relative binding (GpH7-A5/GpH7-B3/GpL16-k0 = 100) | 95.7 relative binding (GpH7-A5/GpH7-B3/GpL16-k0 = 100) | 0.75
5 | GpH7-A5/GpH7-B3 variant A330_05P/GpL16-k0 (antibody, human IgG1, kappa, heterodimerized IgG1; alteration in the GpH7-B3 H chain only; also called He Ab) heavy 1: not shown heavy 2: not shown light: DIVMTQSPLSLPVTPGEPASISCQASESLVHSNRNTYLHWYLQKPGQSPQLLIYKVSNRFSGVPDRFSGSGSGTDFTLKISRVEAEDVGVYYCSQNTHVPPTFGQGTKVEIERTVAAPSVFIFPPSDEQLKSGTASVVCLLNNFYPREAKVQWKVDNALQSGNSQESVTEQDSKDSTYSLSSTLTLSKADYEKHKVYACEVTHQGLSSPVTKSFNRGEC | 0.74 | 137 % of control | 101 % of control | – | – | –
6 | GpH7-A5/GpH7-B3 variant P331_10E/GpL16-k0 (antibody, human IgG1, kappa, Heterodimerized anti-glypican-3 IgG1; P331E (EU) only in the GpH7-B3 chain; also called He Ab) heavy 1: not shown heavy 2: not shown light: DIVMTQSPLSLPVTPGEPASISCQASESLVHSNRNTYLHWYLQKPGQSPQLLIYKVSNRFSGVPDRFSGSGSGTDFTLKISRVEAEDVGVYYCSQNTHVPPTFGQGTKVEIERTVAAPSVFIFPPSDEQLKSGTASVVCLLNNFYPREAKVQWKVDNALQSGNSQESVTEQDSKDSTYSLSSTLTLSKADYEKHKVYACEVTHQGLSSPVTKSFNRGEC | – | – | – | 75.1 relative binding (GpH7-A5/GpH7-B3/GpL16-k0 = 100) | 116 relative binding (GpH7-A5/GpH7-B3/GpL16-k0 = 100) | 0.65
7 | GpH7-A5/GpH7-B3 variant P331_06M/GpL16-k0 (antibody, human IgG1, kappa, Heterodimerized anti-glypican-3 IgG1; P331M (EU) only in the GpH7-B3 chain; also called He Ab) heavy 1: not shown heavy 2: not shown light: DIVMTQSPLSLPVTPGEPASISCQASESLVHSNRNTYLHWYLQKPGQSPQLLIYKVSNRFSGVPDRFSGSGSGTDFTLKISRVEAEDVGVYYCSQNTHVPPTFGQGTKVEIERTVAAPSVFIFPPSDEQLKSGTASVVCLLNNFYPREAKVQWKVDNALQSGNSQESVTEQDSKDSTYSLSSTLTLSKADYEKHKVYACEVTHQGLSSPVTKSFNRGEC | – | – | – | 74.8 relative binding (GpH7-A5/GpH7-B3/GpL16-k0 = 100) | 102 relative binding (GpH7-A5/GpH7-B3/GpL16-k0 = 100) | 0.74
8 | GpH7-A5/GpH7-B3 variant P331_15Y/GpL16-k0 (antibody, human IgG1, kappa, Heterodimerized anti-glypican-3 IgG1; P331Y (EU) only in the GpH7-B3 chain; also called He Ab) heavy 1: not shown heavy 2: not shown light: DIVMTQSPLSLPVTPGEPASISCQASESLVHSNRNTYLHWYLQKPGQSPQLLIYKVSNRFSGVPDRFSGSGSGTDFTLKISRVEAEDVGVYYCSQNTHVPPTFGQGTKVEIERTVAAPSVFIFPPSDEQLKSGTASVVCLLNNFYPREAKVQWKVDNALQSGNSQESVTEQDSKDSTYSLSSTLTLSKADYEKHKVYACEVTHQGLSSPVTKSFNRGEC | – | – | – | 81.9 relative binding (GpH7-A5/GpH7-B3/GpL16-k0 = 100) | 114 relative binding (GpH7-A5/GpH7-B3/GpL16-k0 = 100) | 0.72

— patent US20180155451A1 (published 2018)
